From paper PMC6297170

Biological target: lysine decarboxylase CadA from Vibrio vulnificus (Vibrio vulnificus)
Assay: SEC; Sephacryl S-300 HR column on FPLC, 0.5 mL/min, 50 mM MES/100 mM NaCl pH 6.5; standards IgM 970 kDa, thyroglobulin 669 kDa, ferritin 440 kDa, catalase 232 kDa, aldolase 140 kDa; self-association of the purified enzyme

Work on “lysine decarboxylase CadA from Vibrio vulnificus (from UniProt A0A3Q0L4X5 1-797) (enzyme)” yielded a stoichiometry N of 10.
